In article PMC6586363, “Phenotypic selection with an intrabody library reveals an anti-apoptotic function of PKM2 requiring Mitofusin-1” (PLoS Biology, 2019):

B1: intrabody 5 (IB5) (scFv, V domains shown)
VH: QVQLVETGPGLVKPSETLSLRCTVSGGSFDNYYWNWIRQPPGKGLEYIGYVFPSTGATNYNPSLGSRVTISLDTSKNQFSLTLTSVTTADTAIYYCVRSGHDLWTGSTWFDPWGQWTTVTVSS
VL: EIVLTQSPGTLSLSPGERATLSCRASQSVSSSYLAWYQQKPGQAPRLLIYGASSRATGIPDRFSGSGSGTDFTLTISRLEPEDIAVYYCQQRSNWPRTFGQGTKVEIK
notes: human VH and VL joined by a flexible peptide linker, from a naive human combinatorial scFv library; Expressed without a secretion leader from an EF1alpha lentiviral vector; The tandem Strep-tag was added for the target immunoprecipitation construct; also called clone 5; scFv 5; source: HEK293T, infected with intrabody lentivirus, in lysate; not shown: FLAG, C-terminal, kept
B2: recombinant monovalent scFv 5 (corresponding to IB5) (scFv, V domains shown)
VH: B1 VH
VL: B1 VL
notes: as the scFv of m1; also called purified scFv 5; recombinant scFv; source: E. coli Rosetta (DE3)pLys, pET28a, purified (Ni-NTA)
B3: recombinant PKM2 (K422R) (enzyme)
chain: not shown
notes: human pyruvate kinase isoform M2 with K422R; also called stably tetrameric PKM2 mutant; source: recombinant; WT and mutant PKM2 proteins from E. coli BL21 (DE3), purified (Ni-NTA)
B4: recombinant PKM2 (K270M) (enzyme)
chain: not shown
notes: human pyruvate kinase isoform M2 with K270M, plasmid pET28a-His-hPKM2 (K270M); source: E. coli BL21 (DE3), purified (Ni-NTA)

Key:
[1] = target: T1, pyruvate kinase M2 (PKM2), endogenous in 293T cells (Homo sapiens (Human)., UniProt P14618); assay: affinity purification with mass spectrometry; lysate (1% Triton X-100) of 293T cells expressing FLAG/Strep-tagged intrabody; anti-FLAG M2 beads 2 h at 4°C, elution with 3X FLAG peptide, then Strep-Tactin; SDS-PAGE with silver stain, bands identified by MALDI TOF/TOF; conditions: partners not purified
T1 construct: pyruvate kinase isoform M2 (PKM2), product of the PKM gene with exon 10; also called 55-kD protein; source: endogenous, HEK293T lysate

[2] = target: T2, recombinant human PKM2, wild type (human, UniProt P14618); assay: native gel or EMSA; blue native gel electrophoresis; recombinant scFv 5 mixed with recombinant PKM2 (WT or mutant) or PKM1 at various molar ratios, reaction volume 20 μl; conditions: both partners purified
T2 construct: Runs as dimer and tetramer on blue native gels; also called WT PKM2; His-hPKM2; source: E. coli BL21 (DE3), purified (Ni-NTA)

[3] = target: the molecule itself; assay: native gel or EMSA; blue native gel electrophoresis of recombinant PKM2 (WT or mutant) or PKM1, alone or with FBP and/or scFv 5; resolves dimer and tetramer forms

T1 sequence (P14618 whole entry, canonical isoform): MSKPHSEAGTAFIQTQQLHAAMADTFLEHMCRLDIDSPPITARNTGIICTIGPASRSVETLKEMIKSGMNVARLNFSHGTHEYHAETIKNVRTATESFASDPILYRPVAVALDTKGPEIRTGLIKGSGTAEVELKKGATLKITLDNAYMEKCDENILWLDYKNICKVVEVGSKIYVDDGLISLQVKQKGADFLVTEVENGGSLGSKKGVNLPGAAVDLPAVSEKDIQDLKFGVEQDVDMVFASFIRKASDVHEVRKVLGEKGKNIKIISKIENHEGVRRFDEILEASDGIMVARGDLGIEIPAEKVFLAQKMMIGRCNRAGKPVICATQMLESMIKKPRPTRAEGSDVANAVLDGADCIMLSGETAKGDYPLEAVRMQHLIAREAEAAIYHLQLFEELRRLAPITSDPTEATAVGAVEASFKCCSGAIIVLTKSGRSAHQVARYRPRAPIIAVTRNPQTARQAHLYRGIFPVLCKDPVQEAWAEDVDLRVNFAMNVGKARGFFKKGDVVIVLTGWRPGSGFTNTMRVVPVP
T2 sequence (P14618 whole entry): as the sequence (P14618 whole entry, canonical isoform) above

Binder	stoichiometry N [3]	also measured
B1		binding result [1]: binds
B2		binding result [2]: binds
B3	4	
B4	2	
